Experimental findings from patent US10494415B2, “Insulin-like growth factor 2 (IGF2) binding agents” (Cancer Research Technology Limited, priority 2015, dated 2019) are described below.

Bounds are passed on as bounds.

By Kd is commonly meant the concentration at which binding is half-saturated.

For the assay, the target named is IGF2 (Homo sapiens, UniProt P01344). Briefly: SPR (Biacore T200) of recombinant IGF2R domain 11 mutants on immobilised biotinylated IGF2. The class given is binding. Further details: purchased GroPep. The conditions noted are these: for off rate / koff (figure legend) / on rate / kon (figure legend): FIG. 2, 3. The source says:
Surface plasmon resonance (SPR) binding analysis of recombinant M6P/IGF2R domain 11 mutants interaction with IGF2. Kon indicates association (on) rate; koff, dissociation (off) rate; RU, response units. Binding to IGF2 assessed with BIAcore T200 using purified biotinylated IGF2 and IGF1 on a streptavidin biosensor chip. Recombinant proteins were expressed either in E. coli and/or P. pastoris. All the mutants in the FG and CD loops are on the domain 11^AB5 background for the AB loop unless otherwise stated. All experiments were carried out at 25° C. in HBS-EP buffer (pH 7.4), were repeated 2-5 times on two independent BIAcore chips. nd=not determined. Data for KD expressed as mean of each experiment, and means of kon and koff are shown.
Measurements were carried out at 25° C. in HBS-EP buffer (pH 7.4) (nd=not determined, np=no protein). Data for KD expressed as mean of each experiment, and means of kon and koff are shown.
Measurements were carried out at 25° C. in MES-EP buffer, 20 mM MES pH 6.5, 150 mM NaCl, 3 mM EDTA, and 0.005% (v/v) surfactant P20). Data for KD expressed as mean of each experiment, and means of kon and koff are shown.
Final kinetic analysis of mutants by SPR was conducted using a Biacore T200 biosensor at 25° C. in either HBS-EP (10 mM HEPES pH 7.4, 150 mM NaCl, 3 mM EDTA, and 0.005% (v/v) surfactant P20) or MES-EP (20 mM MES pH 6.5, 150 mM NaCl, 3 mM EDTA, and 0.005% (v/v) surfactant P20) at a flow-rate of 40 μL min^−1. […] For the analysis of the Fc-domain 11^AB5 interaction, approximately 50 RU of a biotinylated IGF2:biotinylated ubiquitin mixture (1:8 proportion) was immobilized on the CM5-streptavidin chip. This interaction was also analysed by immobilizing the Fc-domain 11^AB5 and Fc-domain 11^AB5-RHH (or Fc-domain 11^I1572A as control) by Human Antibody Capture (monoclonal mouse anti-human IgG antibody immobilised on a CM5 chip by amine coupling, GE Healthcare) with and without human IgG1 Fc fragment (Bethyl Laboratories, UK) in the control flow cell. Increasing concentrations of IGF2^1-67, proIGF2^1-104, proIGF2^1-156 and IGF1 ranging from 0.125 to 32 nM were injected. T200 BiaEvaluation software (GE Healthcare) was used to fit the resulting curves according to a 1:1 binding model. Steady state affinities were determined using the kinetic data, taking the response average at 5 seconds before injection end and for 5 seconds average. Thermodynamic data was performed across the temperature range of 10° C. to 30° C., van't Hoff and Erying plots generated and ΔH, −TΔS and ΔG values determined as previously described.
A general note: Surface plasmon resonance follows binding to a sensor surface in real time, without labels.

Chain of IGF2 (P01344 25-91): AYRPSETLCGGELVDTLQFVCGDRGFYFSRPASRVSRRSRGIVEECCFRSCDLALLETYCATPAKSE

B1: K1631W: domain 11 HI loop mutant K1631W, probably AB5 background (protein)
chain: MKSNEHDDCQVTNPSTGHLFDLSSLSGRAGFTAAYAKGWGVYMSICGENENCPPGVGACFGQTRISVGKANKRLRYVDQVLQLVYKDGSPCPSKSGLSYKSVISFVCRPEAGPTNRPMLISLDWQTCTLFFSWHTPLACEQATECSV
B1: under “Table 1, 25° C., HBS-EP pH 7.4”, the Kinetics koff amounted to 0.0034 s⁻¹ and the Kinetics kon came out at 1.18e+06 M⁻¹ s⁻¹. Besides, the Kd (pH 7.4) was found to be 3.23 nM.

B2: S1600L: domain 11 AB5 background + FG loop S1600L (protein)
chain: MKSNEHDDCQVTNPSTGHLFDLSSLSGRAGFTAAYAKGWGVYMSICGENENCPPGVGACFGQTRISVGKANKRLRYVDQVLQLVYKDGSPCPLKSGLSYKSVISFVCRPEAGPTNRPMLISLDKQTCTLFFSWHTPLACEQATECSV
Regarding B2, under “Table 1, 25° C., HBS-EP pH 7.4”, the Kinetics koff is over 0.2 s⁻¹.

B3: P1599V: domain 11 FG loop mutant P1599V, AB5 background unless otherwise stated (protein)
chain: MKSNEHDDCQVTNPSTGHLFDLSSLSGRAGFTAAYAKGWGVYMSICGENENCPPGVGACFGQTRISVGKANKRLRYVDQVLQLVYKDGSPCVSKSGLSYKSVISFVCRPEAGPTNRPMLISLDKQTCTLFFSWHTPLACEQATECSV
Consider B3, for which the Kinetics koff (Table 1, 25° C., HBS-EP pH 7.4) was over 0.1 s⁻¹.

B4: S1600N: domain 11 AB5 background + FG loop S1600N (protein)
chain: MKSNEHDDCQVTNPSTGHLFDLSSLSGRAGFTAAYAKGWGVYMSICGENENCPPGVGACFGQTRISVGKANKRLRYVDQVLQLVYKDGSPCPNKSGLSYKSVISFVCRPEAGPTNRPMLISLDKQTCTLFFSWHTPLACEQATECSV
As to B4, under “Table 1, 25° C., HBS-EP pH 7.4”, the Kinetics koff was determined as 0.0910 s⁻¹ and the Kinetics kon is 3.95e+06 M⁻¹ s⁻¹.

B5: S1600A: domain 11 AB5 background + FG loop S1600A (protein)
chain: MKSNEHDDCQVTNPSTGHLFDLSSLSGRAGFTAAYAKGWGVYMSICGENENCPPGVGACFGQTRISVGKANKRLRYVDQVLQLVYKDGSPCPAKSGLSYKSVISFVCRPEAGPTNRPMLISLDKQTCTLFFSWHTPLACEQATECSV
Take B5: where the note is “Table 1, 25° C., HBS-EP pH 7.4”, the Kinetics koff is 0.2126 s⁻¹ and the Kinetics kon is 2.39e+06 M⁻¹ s⁻¹.

B6: P1599A: domain 11 FG loop mutant P1599A, AB5 background unless otherwise stated (protein)
chain: MKSNEHDDCQVTNPSTGHLFDLSSLSGRAGFTAAYAKGWGVYMSICGENENCPPGVGACFGQTRISVGKANKRLRYVDQVLQLVYKDGSPCASKSGLSYKSVISFVCRPEAGPTNRPMLISLDKQTCTLFFSWHTPLACEQATECSV
Take B6: the Kinetics koff (Table 1, 25° C., HBS-EP pH 7.4) is over 0.1 s⁻¹.

B7: P1599G: domain 11 FG loop mutant P1599G, AB5 background unless otherwise stated (protein)
chain: MKSNEHDDCQVTNPSTGHLFDLSSLSGRAGFTAAYAKGWGVYMSICGENENCPPGVGACFGQTRISVGKANKRLRYVDQVLQLVYKDGSPCGSKSGLSYKSVISFVCRPEAGPTNRPMLISLDKQTCTLFFSWHTPLACEQATECSV
Regarding B7, under “Table 1, 25° C., HBS-EP pH 7.4”, the Kinetics koff was over 0.2 s⁻¹.

B8: K1601A: domain 11 AB5 background + FG loop K1601A (protein)
chain: MKSNEHDDCQVTNPSTGHLFDLSSLSGRAGFTAAYAKGWGVYMSICGENENCPPGVGACFGQTRISVGKANKRLRYVDQVLQLVYKDGSPCPSASGLSYKSVISFVCRPEAGPTNRPMLISLDKQTCTLFFSWHTPLACEQATECSV
Consider B8, for which, under “Table 1, 25° C., HBS-EP pH 7.4”, the Kinetics koff was determined as 0.0220 s⁻¹ and the Kinetics kon is 3.26e+06 M⁻¹ s⁻¹.

B9: AB5 Q1569R P1597H S1602H: domain 11 AB5 + Q1569R, P1597H, S1602H (AB5-RHH) (protein)
chain: MKSNEHDDCQVTNPSTGHLFDLSSLSGRAGFTAAYAKGWGVYMSICGENENCPPGVGACFGRTRISVGKANKRLRYVDQVLQLVYKDGSHCPSKHGLSYKSVISFVCRPEAGPTNRPMLISLDKQTCTLFFSWHTPLACEQATECSV
B9: the “off rate / koff (figure legend)” value stood at 0.0038 s⁻¹ and the “on rate / kon (figure legend)” value was found to be 5.9e+06 M⁻¹ s⁻¹. Under “Table 3, 25° C., HBS-EP pH 7.4”, the Kinetics koff was 0.0038 s⁻¹ and the Kinetics kon is 5.9e+06 M⁻¹ s⁻¹. Further, under “Table 4, MES-EP pH 6.5”, the Kinetics koff was found to be 0.0030 s⁻¹ and the Kinetics kon was determined as 4.41e+06 M⁻¹ s⁻¹.

B10: S1602A: domain 11 AB5 background + FG loop S1602A (protein)
chain: MKSNEHDDCQVTNPSTGHLFDLSSLSGRAGFTAAYAKGWGVYMSICGENENCPPGVGACFGQTRISVGKANKRLRYVDQVLQLVYKDGSPCPSKAGLSYKSVISFVCRPEAGPTNRPMLISLDKQTCTLFFSWHTPLACEQATECSV
For the molecule B10, under “Table 1, 25° C., HBS-EP pH 7.4”, the Kinetics koff is 0.0250 s⁻¹ and the Kinetics kon was found to be 1.57e+06 M⁻¹ s⁻¹.

B11: S1600Y: domain 11 AB5 background + FG loop S1600Y (protein)
chain: MKSNEHDDCQVTNPSTGHLFDLSSLSGRAGFTAAYAKGWGVYMSICGENENCPPGVGACFGQTRISVGKANKRLRYVDQVLQLVYKDGSPCPYKSGLSYKSVISFVCRPEAGPTNRPMLISLDKQTCTLFFSWHTPLACEQATECSV
Take B11: the Kinetics koff (Table 1, 25° C., HBS-EP pH 7.4) was over 0.2 s⁻¹.

B12: S1600V: domain 11 AB5 background + FG loop S1600V (protein)
chain: MKSNEHDDCQVTNPSTGHLFDLSSLSGRAGFTAAYAKGWGVYMSICGENENCPPGVGACFGQTRISVGKANKRLRYVDQVLQLVYKDGSPCPVKSGLSYKSVISFVCRPEAGPTNRPMLISLDKQTCTLFFSWHTPLACEQATECSV
Regarding B12, the Kinetics koff (Table 1, 25° C., HBS-EP pH 7.4) is over 0.2 s⁻¹.

B13: S1602H: domain 11 AB5 background + FG loop S1602H (protein)
chain: MKSNEHDDCQVTNPSTGHLFDLSSLSGRAGFTAAYAKGWGVYMSICGENENCPPGVGACFGQTRISVGKANKRLRYVDQVLQLVYKDGSPCPSKHGLSYKSVISFVCRPEAGPTNRPMLISLDKQTCTLFFSWHTPLACEQATECSV
Turning to B13, for the setting “Table 1, 25° C., HBS-EP pH 7.4”, the Kinetics koff was found to be 0.0112 s⁻¹ and the Kinetics kon was 3.61e+06 M⁻¹ s⁻¹.

B14: S1602N: domain 11 AB5 background + FG loop S1602N (protein)
chain: MKSNEHDDCQVTNPSTGHLFDLSSLSGRAGFTAAYAKGWGVYMSICGENENCPPGVGACFGQTRISVGKANKRLRYVDQVLQLVYKDGSPCPSKNGLSYKSVISFVCRPEAGPTNRPMLISLDKQTCTLFFSWHTPLACEQATECSV
With B14, under “Table 1, 25° C., HBS-EP pH 7.4”, the Kinetics koff was determined as 0.0112 s⁻¹ and the Kinetics kon worked out at 2.38e+06 M⁻¹ s⁻¹.

B15: K1601R: domain 11 AB5 background + FG loop K1601R (protein)
chain: MKSNEHDDCQVTNPSTGHLFDLSSLSGRAGFTAAYAKGWGVYMSICGENENCPPGVGACFGQTRISVGKANKRLRYVDQVLQLVYKDGSPCPSRSGLSYKSVISFVCRPEAGPTNRPMLISLDKQTCTLFFSWHTPLACEQATECSV
As to B15, under “Table 1, 25° C., HBS-EP pH 7.4”, the Kinetics koff was found to be 0.0251 s⁻¹ and the Kinetics kon was found to be 5.28e+06 M⁻¹ s⁻¹.

B16: AB3 Q1569R P1597H S1602H G1603K: domain 11 AB3 + Q1569R, P1597H, S1602H, G1603K (protein)
chain: MKSNEHDDCQVTNPSTGHLFDLSSLSGRAGFTAAYSKSGVVYMSICGENENCPPGVGACFGRTRISVGKANKRLRYVDQVLQLVYKDGSHCPSKHKLSYKSVISFVCRPEAGPTNRPMLISLDKQTCTLFFSWHTPLACEQATECSV
For the molecule B16, the “off rate / koff (figure legend)” value was 0.0108 s⁻¹ and the “on rate / kon (figure legend)” value is 1.75e+07 M⁻¹ s⁻¹. Moreover, under “Table 3, 25° C., HBS-EP pH 7.4”, the Kinetics koff was determined as 0.0108 s⁻¹ and the Kinetics kon was found to be 1.75e+07 M⁻¹ s⁻¹. In addition, for the setting “Table 4, MES-EP pH 6.5”, the Kinetics koff came out at 0.0087 s⁻¹ and the Kinetics kon stood at 2.43e+07 M⁻¹ s⁻¹.
